Consider three molecules from US20090232783, “Method for Regulating Production of Hemoglobin Beta Chains” (published 2009).

The target in this data set is Nuclear ferritin-H (K562 nuclear extract, crude or heat/proteinase K enriched) (Homo sapiens, UniProt P02794 P02794:2-183). Nature of the data set: competition; competes about as well as wt. The following applies: protein: extract. How it is done: Gel mobility shift assays. Gel retardation assays (i.e., gel shifts) were used to determine DNA binding of the extract proteins to the Rsa I (95 bp) fragment and synthetic oligonucleotides (Berg et al., (1989) Nucleic Acids Res 17, 8833-52; Fried & Crothers (1981) Nucleic Acids Res 9, 6505-25). Each reaction contained 0.5-2 ng of DNA, 1.0-5.0 ug of extract protein, 1.0-5.0 ug of poly dI:poly dC, 100 mM KCl, and binding buffer (Berg et al., (1989) Nucleic Acids Res 17, 8833-52). Unlabeled competitor oligonucleotides ranged from 15- to 2000-fold molar excess and were included in the reaction mixture with the probe before adding protein. Gels used for retardation assays were 4%, 5%, or 6% acrylamide and the running buffer was low ionic strength TAE (Berg et al., (1989) Nucleic Acids Res 17, 8833-52).
Definition of the binding site with competition gel shifts. To further localize the binding of ferritin, the 37 bp oligonucleotide was mutated in different places, replacing six nucleotides at a time with all A's, all C's, or all G's, with complementary nucleotide replacements in the opposing strand (FIG. 4A). A competition gel shift assay was done with the partially purified protein from heated K562 nuclear extract, in which each of the unlabeled mutant oligos as well as the native sequence was competed against the 32-P-labeled native sequence for binding.

B1: mutant oligo no. 2 (dsDNA)
DNA 1: AACTCCTAAGCCAGTGCCAGAAAAAACAAGGACAGGT
DNA 2: ACCTGTCCTTGTTTTTTCTGGCACTGGCTTAGGAGTT
On to B1, for which the binding signal was approximately 1 fold.

B2: mutant oligo no. 3 (dsDNA)
DNA 1: AACTCCTAAGCCAGTGCCAGAACAGCCAACCCCCCGT
DNA 2: ACGGGGGGTTGGCTGTTCTGGCACTGGCTTAGGAGTT
For the molecule B2, the binding signal is approximately 1 fold.

B3: mutant oligo no. 1 (dsDNA)
DNA 1: AAGGGGGGAGCCAGTGCCAGAAGAGCCAAGGACAGGT
DNA 2: ACCTGTCCTTGGCTCTTCTGGCACTGGCTCCCCCCTT
The molecule B3 had a binding signal of approximately 1 fold.
